{"source": "patent US20030059827A1", "about": "“Engineered protein binding domains and methods and systems for their design and use” (priority 2001, published 2003)", "key": {"[1]": {"molecular_target": "GFP-PEP (natural target peptide of the PDZ-3 domain, C-terminus of CRIPT) (Aequorea victoria, UniProt P42212, F64L/H231L/S65T)", "details": "PDZ fused to Gal4 activation domain, GFP-pep fused to Gal4 binding domain, SD lacking Trp, Leu, His, Adenine", "protocol": "The two parts of the yeast two-hybrid system were prepared as follows. On one hand, either of the GFP derivatives carrying the C-terminal protein sequences (GFP-pep and GFP-Eg5) were cloned between the NcoI and BamHI sites the pGBKT7 plasmid (Clontech) to obtain a fusion with the DNA binding domain of Gal4. On the other hand, the modified PDZ domains were cloned between the EcoRI and XhoI sites of pGADT7 (Clontech) to obtain a fusion with the activation domain of Gal4. The resulting plasmids were introduced in the yeast strain J569a using the method described by Agatep et al, 1998. Yeast cells were plated in SD lacking Trp and Leu, and then stricken in selective SD medium lacking Trp, Leu, His, and Adenine. Cells only grow in this selective medium if there is an interaction between the expression products of the two plasmids.\nYeast cells transfected with only one of the two plasmids were also tested as controls."}, "GFP": {"molecular_target": "GFP (Aequorea victoria, UniProt P42212, F64L/H231L/S65T)", "details": "6XHis-PDZ on Ni-NTA agarose, E. coli extract, anti-GFP Western blot", "source_text": "(§1) To carry out the affinity chromatography assay, bacterially-expressed PDZ domains and EGFP derivatives were produced and fused to the different target peptides. The original and modified PDZ domains were expressed in E. coli XL1-Blue as fusions with 6XHis. The EGFP-peptides fusions were expressed in E. coli BL21 as described in Sambrook et al, 1989, Molecular Cloning: A Laboratory Manual, 2nd Ed., Vol 3. The bacterially expressed PDZ domains were then bound to nickel resin (Ni-NTA agarose, Quiagen) as described by the manufacturer. The resin-bound PDZ domains were then incubated with E.coli extracts made from bacteria expressing each of the target peptide-GFP fusions and washed four times with 50 mM NaH2PO4, 300 mM NaCl; 20 mM Imidazole; 0,1% of TritonX-100 to remove any unbound proteins. The bound proteins were eluted using 50 mM NaH2PO4, 300 mM NaCl; 200 mM Imidazole and analyzed by Western blot using antibodies against GFP to determine the presence of EGFP fused to the target peptide."}, "[2]": {"molecular_target": "GFP fused to the C-terminal peptide recognized by the original PDZ (pep, CRIPT) (Aequorea victoria, UniProt P42212, F64L/H231L/S65T)", "details": "6XHis-PDZ on Ni-NTA agarose, E. coli extract, anti-GFP Western blot", "source_text": "as §1"}, "[3]": {"molecular_target": "GFP fused to the Eg5 C-terminal peptide (Mus musculus, UniProt Q6P9P6)", "details": "6XHis-PDZ on Ni-NTA agarose, E. coli extract, anti-GFP Western blot", "source_text": "as §1"}, "Biotin-GG-KQTSV": {"molecular_target": "T1, Biotin-GG-KQTSV (Homo sapiens, UniProt Q9P021)", "T1 construct": "with its natural target (Biotin-GG-KQTSV)", "test": "Micro-calorimetric assay", "format": "binding", "source_text": "Physical methods for measuring the dissociation (or affinity) constant include iso-thermal calorimetry, surface plasmon resonance, analytical ultra-centrifagation (where appropriate), and so forth. Iso-thermal calorimetry is the preferred method. Iso-thermal calorimetry measures the heat released when a binding polypeptide binds to its target under constant-temperature, constant-pressure conditions. From these measurements, the thermodynamic parameters of this binding can be routinely determined by the methods of physical chemistry. For example, it is routinely possible to obtain the binding affinity (or dissociation constant), the stoichiometry of binding (n), the heat (or enthalpy) of binding (H), the heat capacity of binding, the entropy of binding, and so forth. Current micro-iso-thermal machines are readily available commercially. Such machines are fully automatic, directly returning the above thermodynamic results. See, e.g., MicoCal, LLC, Northampton. Mass.; www.microcalorimetry.com.\nFIG. 14 illustrates the routine use of micro-calorimetry to determine the binding parameters of the wild-type PDZ (PDZ3 of PSD095) domain with its natural target (Biotin-GG-KQTSV). This figure present the output of an automated micro-calorimetry experiment returning the stoichiometry constant (n), the affinity constant (K), the enthalpy of binding (H), and the entropy of binding (S)."}}, "note": "Read-outs that look alike come from different tables or passages of the source.", "data": [{"molecule": "PDZ-3: third PDZ domain of the mouse PSD-95 protein, amino acid 302 to 402; unmodified redesign precursor (protein, UniProt Q62108 302-402, looked up, fragment, PDZ 3, third PDZ domain of the mouse PSD-95 protein, amino acid 302 to 402; unmodified redesign precursor) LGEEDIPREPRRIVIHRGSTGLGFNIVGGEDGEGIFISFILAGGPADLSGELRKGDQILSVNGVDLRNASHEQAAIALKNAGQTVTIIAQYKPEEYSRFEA", "values": [{"measurement": "viability of transfected yeast cells in selective medium (interaction)", "setting": "[1]", "value": "specifically interacts with its target peptide"}, {"measurement": "viability of transfected yeast cells in selective medium (interaction)", "setting": "[1]; listed as PGADT7-PDZ", "value": "allow viability"}, {"measurement": "binding of GFP alone to immobilized PDZ domain", "setting": "GFP", "value": "not able to bind"}, {"measurement": "binding of GFP-pep fusion to immobilized PDZ domain", "setting": "[2]", "value": "binds only to its naturally recognized target peptide"}, {"measurement": "binding of GFP-pep fusion to immobilized PDZ domain", "setting": "[2]; listed as original PDZ", "value": "very efficiently bind"}, {"measurement": "binding of GFP-Eg5 fusion to immobilized PDZ domain", "setting": "[3]", "value": "not able to bind"}, {"measurement": "Kd", "setting": "Biotin-GG-KQTSV; corresponding to the measured affinity constant, read-out: dissociation constant", "value": 39, "unit": "µM"}, {"measurement": "affinity constant (K)", "setting": "Biotin-GG-KQTSV; micro-calorimetry, natural target Biotin-GG-KQTSV", "value": 25700, "unit": "M⁻¹"}]}]}
